Measured values from patent publication US20220064279A1 (AstraZeneca / MedImmune, published 2022).

Biological target: endogenous LIF of U-251 glioma cells (human, UniProt P15018 23-202)
Assay: cell-based or functional assay

Chain of endogenous LIF of U-251 glioma cells (P15018 23-202 limits assumed): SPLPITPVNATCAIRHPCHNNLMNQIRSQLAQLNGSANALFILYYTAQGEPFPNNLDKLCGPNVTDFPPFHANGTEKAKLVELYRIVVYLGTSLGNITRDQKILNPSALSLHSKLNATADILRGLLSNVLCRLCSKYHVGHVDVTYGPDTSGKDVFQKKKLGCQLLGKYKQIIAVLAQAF

B1: h5D8 (humanized 5D8, H2L2) (antibody, V domains shown)
VH: QVQLQESGGGLVKPGGSLRLSCAASGFTFSHAWMHWVRQAPGKGLEWVGQIKAKSDDYATYYAESVKGRFTISRDDSKNTLYLQMNSLKTEDTAVYYCTCWEWDLDFWGQGTMVTVSS
VL: DIVMTQTPLSSPVTLGQPASISCRSSQSLLDSDGHTYLNWLQQRPGQPPRLLIYSVSNLESGVPDRFSGSGAGTDFTLKISRVEAEDVGVYYCMQATHAPPYTFGQGTKLEIK
IC50 for biological inhibition (pSTAT3, MSD assay, serum starved U-251 cells): 490 picomolar
